Reference: patent US20010000783A1, “Treatment of interstitial cystitis” (priority 1998, published 2001)

Columns and labels:
Type in all cases: cell-based
[1] = system: primary human bladder epithelial cells grown from IC patient biopsy specimens; assay: Inhibition of HPLC-purified APF activity by rhHB-EGF, 3H-thymidine incorporation, cells from IC patient biopsies; settings: 10 pg/10^7 cells HPLC-purified APF, 48 hours; cells from IC patients; FIG. 10B
Description: (§1) Primary normal adult human bladder epithelial (HBE) cells were cultured by the method described above in Part II. On the third day of incubation, cell medium was replaced by serum free MEM containing the less than 3 kDa fraction (i.e, containing the APF) of urine specimens from IC patients or controls (i.e., that part containing the anti-proliferative factor or APF described in related application Ser. No. 08/944,202), or HPLC-purified APF or its mock control along with varying concentrations of recombinant HB-EGF (0-100 ng/ml), EGF (0-100 ng/ml), or IGF-1 (0-300 pg/ml) [all from R & D Systems, Minneapolis, Minn.] diluted in phosphate buffered saline (1:1:1). Urine was prepared by the method described above in Part II and HPLC purified APF was prepared as described above. Following an additional 48 hours of incubation at 37 degrees C. in a 5% CO2 atmosphere, cell proliferation was assessed by ^3H-thymidine incorporation according to the published methods^38.
(§2) Cell proliferation was determined 48 hours later by 3H-thymidine incorporation. Bar values indicate the mean of triplicate determinations. Vertical lines indicate the standard of error of the mean.

[2] = system: primary human bladder epithelial cells grown from normal bladder tissue; assay: Inhibition of HPLC-purified APF activity by rhHB-EGF, 3H-thymidine incorporation, cells from normal bladder tissue; settings: 10 pg/10^7 cells HPLC-purified APF, 48 hours; cells from controls; FIG. 10A
Description: as §1, §2

[3] = system: Normal human bladder epithelial cells; assay: Inhibition of APF activity by recombinant growth factors, low molecular weight urine fractions, 3H-thymidine incorporation
Description: as §1
Normal human bladder epithelial cells were exposed simultaneously to recombinant human growth factors (HB-EGF, EGF, or IGF1) and low molecular weight fractions from IC patients or control urine specimens. Cell proliferation was determined 48 hours later by 3H-thymidine incorporation (FIGS. 6A-6C). Bar values indicate the mean of 5-8 determinations. Vertical lines indicate the standard error of the mean.

B1: heparin-binding epidermal growth factor-like growth factor (protein, UniProt Q99075 63-148, looked up)
Heparin-binding EGF-like …: DLQEADLDLLRVTLSSKPQALATPNKEEHGKRKKKGKGLGKKRDPCLRKYKDFCIHGECKYVKELRAPSCICHPGYHGERCHGLSL
inhibition of APF's antiproliferative effects [1]: can inhibit APF's antiproliferative effects
inhibition of APF's antiproliferative effects [2]: can inhibit APF's antiproliferative effects
proliferation of cells exposed to urine from IC patients ([3]; high concentrations of rhHB-EGF, compared with cells exposed to control urines, FIG. 6A): stimulated, more than that of cells exposed to control urines
inhibition of APF antiproliferative activity ([3]; simultaneous exposure to recombinant growth factor and <3 kDa urine fraction, 48 hours, HB-EGF 0-100 ng/ml (effect evident at 10 ng/ml), EGF 0-100 ng/ml, IGF-1 0-300 pg/ml, FIGS. 6A-6C): resulted in inhibition of APF antiproliferative activity
